Measured values from paper PMC3207831, “Determinants of the Differential Antizyme-Binding Affinity of Ornithine Decarboxylase” (PLoS ONE, 2011).

How the values were obtained:
[1] = target: human ornithine decarboxylase, wild type (human) (UniProt P11926)
[2] = target: ODC_7M (ODC_Q119H/A124R/N125D/Q129D/E136V/V137D/M140E) (human) (UniProt P11926)
ODC_7M(-V137D) (human) = ODC_7M(-V137D) (human) (UniProt P11926); assay: AUC; sedimentation velocity, 20°C, 42,000 rpm, absorbance at 280 nm; ODC fixed at 0.3 mg/mL, AZ 0.03, 0.06 or 0.09 mg/mL; global fit to the AB hetero-association model (SEDPHAT)
[3] = target: human ornithine decarboxylase, wild type (human) (UniProt P11926); assay: as above
[4] = target: ODC_Q119H/V137D/M140E (human) (UniProt P11926); assay: as above
[5] = target: ODC_7M (ODC_Q119H/A124R/N125D/Q129D/E136V/V137D/M140E) (human) (UniProt P11926); assay: as above
[6] = target: ODC_7M(-Q119H) (ODC_A124R/N125D/Q129D/E136V/V137D/M140E) (human) (UniProt P11926); assay: as above
[7] = target: the molecule itself; assay: AUC; sedimentation velocity, 20°C, 42,000 rpm, continuous size distribution (SEDFIT); ODC in the absence of AZ

| Molecule | ODC enzyme activity left with increasing AZ (ODC 20 μg/mL, AZ 0 to 28 μg/mL); value at a molar ratio of 2:1 monomeric AZ to dimeric ODC [1] [%] | ODC enzyme activity left with increasing AZ (ODC 20 μg/mL, AZ 0 to 28 μg/mL); value at a molar ratio of 1:1 AZ:ODC [2] [%] | Kd (ODC_7M(-V137D) (human)) [nM] | Kd [3] [nM] | Kd [4] [nM] | Kd [5] [nM] | Kd [6] [nM] | stoichiometry N [7] |
| --- | --- | --- | --- | --- | --- | --- | --- | --- |
| antizyme (from UniProt P54368 1-228) (natural protein) | 30 | 90 | 1200 | 220 | 9950 | 12400 | 1420 |  |
| human ornithine decarboxylase, wild type (enzyme, UniProt P11926 1-461, looked up, human ornithine decarboxylase (ODC, EC 4.1.1.17); Homodimer in the absence of AZ by sedimentation velocity; also called hODC; source: E. coli JM109 (pQE30), purified (Ni-NTA)) MNNFGNEEFDCHFLDEGFTAKDILDQKINEVSSSDDKDAFYVADLGDILKKHLRWLKALPRVTPFYAVKCNDSKAIVKTLAATGTGFDCASKTEIQLVQSLGVPPERIIYANPCKQVSQIKYAANNGVQMMTFDSEVELMKVARAHPKAKLVLRIATDDSKAVCRLSVKFGATLRTSRLLLERAKELNIDVVGVSFHVGSGCTDPETFVQAISDARCVFDMGAEVGFSMYLLDIGGGFPGSEDVKLKFEEITGVINPALDKYFPSDSGVRIIAEPGRYYVASAFTLAVNIIAKKIVLKEQTGSDDEDESSEQTFMYYVNDGVYGSFNCILYDHAHVKPLLQKRPKPDEKYYSSSIWGPTCDGLDRIVERCDLPEMHVGDWMLFENMGAYTVAAASTFNGFQRPTIYYVMSGPAWQLMQQFQNPDFPPEVEEQDASTLPVSCAWESGMKRHRAACASASINV |  |  |  |  |  |  |  | 2 |
